Experimental data as given in paper PMC11754111 (2025).
Where no end group is shown, it is not given here.

T1: JARID1A PHD finger
T1 chain: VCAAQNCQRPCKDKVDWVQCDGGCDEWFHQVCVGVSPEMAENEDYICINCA

T2: BPTF PHD finger
T2 chain: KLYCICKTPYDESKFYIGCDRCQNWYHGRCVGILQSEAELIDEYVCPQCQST

T3: JMJDA Tudor domain
T3 chain: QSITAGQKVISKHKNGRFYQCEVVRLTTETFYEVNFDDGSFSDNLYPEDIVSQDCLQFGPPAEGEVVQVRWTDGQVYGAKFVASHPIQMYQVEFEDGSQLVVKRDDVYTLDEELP

T4: TAF3 PHD finger
T4 chain: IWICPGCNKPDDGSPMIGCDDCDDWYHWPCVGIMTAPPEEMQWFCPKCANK


Assays:
Experiment in all cases: ITC
[1] = biological target: T1, JARID1A PHD finger
[2] = biological target: T2, BPTF PHD finger
[3] = biological target: T3, JMJDA Tudor domain
[4] = biological target: T4, TAF3 PHD finger

Binder	Kd [1] [µM]	Kd [2] [µM]	Kd [3] [µM]	Kd [4] [µM]
ARTKQTARKSTGGKA (trimethyl-lysine at 4; histaminylated glutamine at 5; C-terminal amide (general statement of the peptide synthesis)) [H3K4me3Q5his histone H3 tail peptide (ITC)]	1.85	1.94	2.3	
ARTKQTARKSTGGKA (trimethyl-lysine at 4; serotonylated glutamine at 5; C-terminal amide (general statement of the peptide synthesis)) [H3K4me3Q5ser histone H3 tail peptide (ITC)]	2.9	2.72	3.61	
ARTKQTARKSTGGKA (histaminylated glutamine at 5; C-terminal amide (general statement of the peptide synthesis)) [H3Q5his histone H3 tail peptide (ITC and crystal)]				7.94
ARTK(Me3)QTARKSTGGKA-NH2 [H3K4me3 histone H3 tail peptide (ITC)]	1.68	1.81		
ARTKQTARKSTGGKA (serotonylated glutamine at 5; C-terminal amide (general statement of the peptide synthesis)) [H3Q5ser histone H3 tail peptide (ITC)]				3.79
ARTKQTARKSTGGKA-NH2 [unmodified histone H3 N-terminal tail peptide (ITC)]				21.5
